In PMC7891396:

Target: Int^C-eGFP-H6 with the C124A and N146A mutations (construct 9), inactivated C-terminal precursor of the AceL NrdHF split intein (not stated (metagenomic contig from the Antarctic Ace Lake, might originate from a bacteriophage))
Test: MST; Monolith NT.115; 9 at 8.8 nM (eGFP as fluorophore), 1 in a dilution series from 2500 to 0.61 nM; BSA 0.05 % (w/v) and Tween-20 0.1 % (v/v) added; 20 % MST power, 20 % blue LED; four parametric sigmoidal fit

Kd: 82.2 nM
Substance: MBP-Int^N-H6 (1), N-terminal precursor of the AceL NrdHF split intein (domain or fragment)
